A value given as a limit tells only on which side of the number the result lay.

Experiment [1] concerns the target asialotransferrin (human) (UniProt P02787). The experiment in a line: qualitative ELLA, lectin 2 µg/mL.
Experiment [2] has as its target Gal-α1,3-Gal-BSA glycoconjugate (UniProt P02769). In words: ELLA lectin dose response.

Sequence of asialotransferrin (human) (P02787 20-698 limits assumed): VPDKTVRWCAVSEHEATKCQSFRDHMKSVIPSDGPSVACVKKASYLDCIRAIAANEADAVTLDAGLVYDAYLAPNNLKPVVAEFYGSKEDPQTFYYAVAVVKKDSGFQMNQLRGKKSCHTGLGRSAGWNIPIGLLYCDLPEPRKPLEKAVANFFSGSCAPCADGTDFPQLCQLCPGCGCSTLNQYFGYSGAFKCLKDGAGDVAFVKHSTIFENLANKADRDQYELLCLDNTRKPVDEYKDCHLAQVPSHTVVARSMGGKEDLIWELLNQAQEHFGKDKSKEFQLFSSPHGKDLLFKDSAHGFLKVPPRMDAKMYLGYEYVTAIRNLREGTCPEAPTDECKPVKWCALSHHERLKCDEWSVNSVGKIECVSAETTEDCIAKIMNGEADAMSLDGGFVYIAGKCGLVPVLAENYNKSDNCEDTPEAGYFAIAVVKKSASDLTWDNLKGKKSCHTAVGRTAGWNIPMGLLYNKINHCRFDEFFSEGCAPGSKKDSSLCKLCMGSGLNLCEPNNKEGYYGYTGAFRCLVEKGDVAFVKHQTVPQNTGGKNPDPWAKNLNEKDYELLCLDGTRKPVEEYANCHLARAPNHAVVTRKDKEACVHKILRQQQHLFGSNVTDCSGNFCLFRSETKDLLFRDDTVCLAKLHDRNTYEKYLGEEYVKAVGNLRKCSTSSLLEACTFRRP
Sequence of Gal-α1,3-Gal-BSA glycoconjugate (P02769 25-607 limits assumed): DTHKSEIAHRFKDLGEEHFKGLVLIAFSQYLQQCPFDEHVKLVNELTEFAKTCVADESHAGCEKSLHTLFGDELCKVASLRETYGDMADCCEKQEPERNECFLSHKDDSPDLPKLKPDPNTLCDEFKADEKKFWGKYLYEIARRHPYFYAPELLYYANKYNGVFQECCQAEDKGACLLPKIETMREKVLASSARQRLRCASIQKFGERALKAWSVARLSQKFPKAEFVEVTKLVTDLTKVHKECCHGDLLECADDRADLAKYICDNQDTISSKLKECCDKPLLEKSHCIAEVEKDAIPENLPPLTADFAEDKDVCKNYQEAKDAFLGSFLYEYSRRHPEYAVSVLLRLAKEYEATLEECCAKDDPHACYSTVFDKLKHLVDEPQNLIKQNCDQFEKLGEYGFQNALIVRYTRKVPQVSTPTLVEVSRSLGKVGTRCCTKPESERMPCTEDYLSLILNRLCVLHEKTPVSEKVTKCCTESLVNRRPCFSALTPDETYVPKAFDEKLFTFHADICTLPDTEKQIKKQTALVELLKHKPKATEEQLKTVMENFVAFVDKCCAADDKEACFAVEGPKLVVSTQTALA

Turning to “H50N (rPA-ILNm protein) (from UniProt Q05097 1-122)”, in experiment [1], the ELLA signal relative to rPA-ILNmE6 worked out at 0.5 fold. The substance H50N:Q53G (from UniProt Q05097 1-122) displayed an ELLA signal relative to rPA-ILNmE6 in experiment [1] of less than 0.5 fold. In experiment [2], “rPA-ILN (recombinant wild type PA-IL with an N-terminal RGS-6HIS affinity tag) (from UniProt Q05097 1-122)” returned a lectin concentration at which the ELLA signal reached saturation of more than 1.25 µg/mL.
